The experiment deals with recombinant IPSE/alpha-1 expressed in tobacco plants (N-terminally tagged H6F-IPSE) (Schistosoma mansoni). Put plainly: SDS-PAGE under reducing and non-reducing conditions; purified IPSE on a 12% Bis-Tris gel, with and without DTT, Coomassie brilliant blue staining.

For “recombinant IPSE/alpha-1 expressed in tobacco plants (N-terminally tagged H6F-IPSE) (natural protein)”, the stoichiometry N (commonly a count of units in the complex or per binding partner) is 2.

These data come from publication PMC5550006.
